Data reported in article PMC10360443 (Science immunology, 2023).

Molecular target: HHLA2 (recombinant, SPR analyte) (human, UniProt Q9UM44 23-414)
Assay: SPR

B1: KIR3DL3 (recombinant, coupled to the streptavidin sensor chip) (receptor)
chain: QDKPFLSAWPGTVVSEGQHVTLQCRSRLGFNEFSLSKEDGMPVPELYNRIFRNSFLMGPVTPAHAGTYRCCSSHPHSPTGWSAPSNPVVIMVTGVHRKPSLLAHPGPLVKSGETVILQCWSDVRFERFLLHREGITEDPLRLVGQLHDAGSQVNYSMGPMTPALAGTYRCFGSVTHLPYELSAPSDPLDIVVVGLYGKPSLSAQPGPTVQAGENVTLSCSSRSLFDIYHLSREAEAGELRLTAVLRVNGTFQANFPLGPVTHGGNYRCFGSFRALPHAWSDPSDPLPVSVTGNSRHL
- Kd: 48.9 µM
